Source: US20230133281A1 (CHROMOXYION, published 2023)

Biological target: T1, Antigen SdW1a (free peptide) (Homo sapiens)
T1 construct: Synthetic peptide derived from DBY/DEAD; A KLH-conjugated form (SdW1b) was also used in screening; also called the antigen; 22-mer peptide
T1 peptide: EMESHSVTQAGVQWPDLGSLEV
Assay: supernatant ELISA on the antigen, hybridoma supernatant
Method: Screening: Hybridoma cells were grown for 10 days at which point the number of positive hybridoma colonies was determined and after a further 3 days' incubation an aliquot of antibody supernatant was taken for screening. The supernatant was assayed for reactivity to the antigens SdW1a (free peptide—SEQ ID NO. 347) and SdW1b (KLH-peptide), firstly by antigen microarray using an IgG-specific secondary antibody, followed by supernatant ELISA to confirm any positive antibody-producing clones.

- binding result: binds
B1: monoclonal antibody SdW1 RE5.B7.F9b (antibody, mouse IgG2a, V domains shown)
VH: EVKVEESGGGLVQPGGSMKISCVASGFTFKNYWMNWVRQSPEKGLEWVAEIRSKSNNNEKHYAESVKGRFTISRDDFKSSVYLQMNNLRTEDTGIYYCTGGTFDYWGQGTTLTVSS
VL: DVVVTQTPLSLPVSLGDQASISCRSSHSLVHSDGNTYLHWYLQKPGQSPKLLIYKVSNRFSGVPDRFSGSGSGTDFTLKISRVEAEDLGVYFCSQTTHVPPYTFGGGTQLEIK
notes: Tested as hybridoma culture supernatant; also called clone RE5; RE5 antibody
